Here are results for ten substances from paper doi:10.1101/2023.12.22.573140.

Common to all, as to test: ITC
Test [1] deals with TGF-β type II receptor (TβRII) (UniProt P37173).
In test [2] the target is TGF-β mimic 6 (TGM6), full-length (Heligmosomoides polygyrus).
For test [3], the target named is TGM6 domain 3 (TGM6-D3) (Heligmosomoides polygyrus).

TGM6-D3 R82S (domain or fragment) returned a fold loss of binding affinity against wild type in test [1] of 7.4 fold.

TGM6-D3 Y93A (domain or fragment) showed a fold decrease in binding affinity against wild type in test [1] of 108 fold.

In the case of TGM6-D3 R38A (domain or fragment), in test [1], the fold decrease in binding affinity against wild type came to 22 fold.

Consider TGM6-D3 R82A (domain or fragment), for which the fold decrease in binding affinity against wild type in test [1] fell in the range of 11 to 12 fold.

In turn, TGM6-D3 I78A (domain or fragment) yielded a fold decrease in binding affinity against wild type in test [1] of 15.4 fold.

Consider TGM1-D3 S242R (domain or fragment), for which the fold gain of binding affinity against wild type in test [1] came to 4 fold.

Substance TGM6-D3 Y80F (domain or fragment) gave a fold decrease in binding affinity against wild type in test [1] of 3.5 fold.

Substance TGM6-D3 R95A (domain or fragment) had a fold decrease in binding affinity against wild type in test [1] of 11.6 fold.

The substance TGM6-D3 Y80A (domain or fragment) showed a fold decrease in binding affinity against wild type in test [1] of 134 fold.

For the substance “TGF-β type II receptor (TβRII) (from UniProt P37173 46-155)”, the Kd in test [2] worked out at 220 nM; in test [3], 440 nM.
